PMC11626796

Experiments:
[1] = target: Versican treated with chondroitinase ABC (core protein) (bovine) (UniProt P81282); experiment: ELISA; solid-phase binding assay: proteoglycan or versican domain coated on a 96-well plate (0.25 ug/ml; 0.05-1 ug/ml in Fig. 2A) at 4 C overnight, blocked with 3% BSA in TTBS or casein; rat tail type I collagen 0.1-5 ug/ml in 1% BSA/PBS overnight at RT; detected with biotin-conjugated anti-collagen I antibody, streptavidin-HRP and TMB; Kd from Scatchard plot
[2] = target: Native versican isolated from bovine liver (bovine) (UniProt P81282); experiment: as above
Chain of Native versican isolated from bovine liver (bovine) (P81282 21-3381): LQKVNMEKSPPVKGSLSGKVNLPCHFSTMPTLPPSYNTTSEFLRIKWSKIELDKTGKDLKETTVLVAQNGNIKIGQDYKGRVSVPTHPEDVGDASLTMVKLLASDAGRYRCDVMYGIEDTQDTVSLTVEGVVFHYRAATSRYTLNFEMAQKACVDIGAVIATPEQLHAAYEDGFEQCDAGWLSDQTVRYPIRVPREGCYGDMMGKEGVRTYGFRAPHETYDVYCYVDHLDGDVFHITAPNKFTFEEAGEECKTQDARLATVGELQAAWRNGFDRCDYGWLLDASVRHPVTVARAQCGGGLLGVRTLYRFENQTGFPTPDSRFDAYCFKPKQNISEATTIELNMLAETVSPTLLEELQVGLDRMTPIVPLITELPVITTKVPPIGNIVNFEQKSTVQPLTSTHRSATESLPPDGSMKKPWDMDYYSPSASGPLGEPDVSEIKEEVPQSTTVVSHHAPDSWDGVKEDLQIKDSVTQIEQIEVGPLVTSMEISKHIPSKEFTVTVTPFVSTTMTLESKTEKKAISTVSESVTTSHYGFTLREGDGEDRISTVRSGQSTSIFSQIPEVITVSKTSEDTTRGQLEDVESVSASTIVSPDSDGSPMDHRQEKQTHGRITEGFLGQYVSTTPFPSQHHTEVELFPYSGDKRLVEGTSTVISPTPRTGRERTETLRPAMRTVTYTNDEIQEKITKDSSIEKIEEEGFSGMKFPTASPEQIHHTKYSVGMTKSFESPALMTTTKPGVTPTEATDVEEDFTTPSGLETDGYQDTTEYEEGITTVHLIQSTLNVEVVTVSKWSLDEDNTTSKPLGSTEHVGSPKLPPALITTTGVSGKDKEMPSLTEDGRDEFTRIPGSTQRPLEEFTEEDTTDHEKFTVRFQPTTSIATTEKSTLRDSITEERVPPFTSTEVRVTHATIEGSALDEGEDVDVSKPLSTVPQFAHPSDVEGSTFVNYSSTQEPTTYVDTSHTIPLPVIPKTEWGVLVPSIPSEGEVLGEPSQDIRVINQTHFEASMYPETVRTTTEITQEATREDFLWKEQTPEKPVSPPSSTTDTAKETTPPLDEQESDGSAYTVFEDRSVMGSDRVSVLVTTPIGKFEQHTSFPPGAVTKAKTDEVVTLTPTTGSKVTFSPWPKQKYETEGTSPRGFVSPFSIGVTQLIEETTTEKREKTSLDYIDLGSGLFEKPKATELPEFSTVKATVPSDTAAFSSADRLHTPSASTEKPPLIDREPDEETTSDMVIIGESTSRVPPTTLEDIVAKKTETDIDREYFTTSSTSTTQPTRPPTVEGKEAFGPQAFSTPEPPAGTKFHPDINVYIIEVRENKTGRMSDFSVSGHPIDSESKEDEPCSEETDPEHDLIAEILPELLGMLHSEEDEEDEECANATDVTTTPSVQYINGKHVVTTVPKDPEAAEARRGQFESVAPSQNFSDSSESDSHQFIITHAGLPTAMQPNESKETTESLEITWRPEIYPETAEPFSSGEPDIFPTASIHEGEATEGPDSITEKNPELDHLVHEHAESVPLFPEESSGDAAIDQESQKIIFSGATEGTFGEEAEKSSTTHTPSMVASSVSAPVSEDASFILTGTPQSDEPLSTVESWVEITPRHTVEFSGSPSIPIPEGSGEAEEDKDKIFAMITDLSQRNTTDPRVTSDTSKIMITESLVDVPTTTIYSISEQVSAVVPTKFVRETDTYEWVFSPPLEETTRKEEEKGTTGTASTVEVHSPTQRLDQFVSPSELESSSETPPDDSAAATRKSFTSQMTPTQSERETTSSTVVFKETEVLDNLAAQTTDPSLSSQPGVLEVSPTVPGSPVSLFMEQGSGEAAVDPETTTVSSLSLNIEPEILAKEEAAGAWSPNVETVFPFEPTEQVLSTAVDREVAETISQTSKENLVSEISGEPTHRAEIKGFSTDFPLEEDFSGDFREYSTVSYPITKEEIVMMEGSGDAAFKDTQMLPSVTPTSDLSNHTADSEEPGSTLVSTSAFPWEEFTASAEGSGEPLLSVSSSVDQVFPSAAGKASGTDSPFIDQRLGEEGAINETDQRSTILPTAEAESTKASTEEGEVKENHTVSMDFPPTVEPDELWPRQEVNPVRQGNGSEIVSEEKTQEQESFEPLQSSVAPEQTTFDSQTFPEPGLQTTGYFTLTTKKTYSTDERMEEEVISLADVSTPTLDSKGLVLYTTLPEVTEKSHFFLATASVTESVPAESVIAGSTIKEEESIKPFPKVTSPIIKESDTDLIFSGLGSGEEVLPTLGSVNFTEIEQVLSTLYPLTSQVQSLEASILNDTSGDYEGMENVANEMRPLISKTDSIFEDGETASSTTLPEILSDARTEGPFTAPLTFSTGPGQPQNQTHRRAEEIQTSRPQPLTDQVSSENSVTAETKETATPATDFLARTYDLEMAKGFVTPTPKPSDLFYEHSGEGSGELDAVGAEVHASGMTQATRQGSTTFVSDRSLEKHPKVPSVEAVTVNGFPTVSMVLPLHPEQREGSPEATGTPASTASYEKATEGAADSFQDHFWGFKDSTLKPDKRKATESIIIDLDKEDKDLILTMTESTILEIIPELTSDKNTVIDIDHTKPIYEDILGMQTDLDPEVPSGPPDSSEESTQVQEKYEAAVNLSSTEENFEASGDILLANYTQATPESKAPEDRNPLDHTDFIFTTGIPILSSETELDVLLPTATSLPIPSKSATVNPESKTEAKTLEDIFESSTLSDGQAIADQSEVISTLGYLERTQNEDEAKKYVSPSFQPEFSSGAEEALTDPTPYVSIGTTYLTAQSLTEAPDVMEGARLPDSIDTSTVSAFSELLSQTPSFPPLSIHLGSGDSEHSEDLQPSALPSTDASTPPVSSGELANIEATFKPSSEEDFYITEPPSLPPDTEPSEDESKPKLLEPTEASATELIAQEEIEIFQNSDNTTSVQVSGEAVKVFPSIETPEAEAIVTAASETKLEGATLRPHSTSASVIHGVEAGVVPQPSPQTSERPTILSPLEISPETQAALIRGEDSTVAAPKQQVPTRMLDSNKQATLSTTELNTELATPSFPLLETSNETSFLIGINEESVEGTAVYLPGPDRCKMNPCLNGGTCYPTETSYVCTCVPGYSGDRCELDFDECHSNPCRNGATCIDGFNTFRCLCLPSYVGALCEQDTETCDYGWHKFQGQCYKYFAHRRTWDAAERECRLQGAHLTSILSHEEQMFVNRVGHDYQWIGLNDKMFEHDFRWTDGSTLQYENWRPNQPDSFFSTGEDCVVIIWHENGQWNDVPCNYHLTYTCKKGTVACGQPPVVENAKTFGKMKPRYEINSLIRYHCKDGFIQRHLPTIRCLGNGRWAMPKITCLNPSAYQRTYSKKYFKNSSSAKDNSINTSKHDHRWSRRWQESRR

Chain of Versican treated with chondroitinase ABC (core protein) (bovine) (P81282 21-3381): as above

Kd [1] [nM] | Kd [2] [nM] | Substance
2.2 | – | Rat tail type I telo-collagen, P02454 152-1207; P02466 86-1125 (complex; GAG side chains removed with chondroitinase ABC)
– | 1.3 | Rat tail type I telo-collagen, P02454 152-1207; P02466 86-1125 (complex; chondroitin sulfate GAG side chains)
